Conditions in all cases: remark: other sources report otherwise
The target of test [1] is T1, SARS-CoV-2 spike receptor binding domain, wild-type (S-RBD) (SARS-CoV-2), P0DTC2.
Test [2] has as its target full-length SARS-CoV-2 spike (SARS-CoV-2), P0DTC2.
In test [3] the target is N501Y S-RBD (SARS-CoV-2), P0DTC2.
The target in test [4] is SARS-CoV-2 spike D215H (SARS-CoV-2), P0DTC2.
Test [5] addresses SARS-CoV-2 spike D614G (SARS-CoV-2), P0DTC2.
Test [6] deals with SARS-CoV-2 spike E484K+N501Y+D614G (SARS-CoV-2), P0DTC2.
Test [7] has as its target T2, SARS-CoV-2 spike K417N+E484K+N501Y+D614G (SARS-CoV-2), P0DTC2.
Test [8] addresses SARS-CoV-2 spike K417N+N501Y+D614G (SARS-CoV-2), P0DTC2.
In test [9] the target is SARS-CoV-2 spike N439K+D614G (SARS-CoV-2), P0DTC2.
Test [10] deals with SARS-CoV-2 spike N501Y+D614G (SARS-CoV-2), P0DTC2.
Test [11] addresses SARS-CoV-2 spike S247R (SARS-CoV-2), P0DTC2.
In test [12] the target is N501Y S-RBD (SARS-CoV-2), P0DTC2. As to the kind of experiment: BLI (Octet), N501Y S-RBD amine coupled on AR2G sensor, 1:1 fit.
Test [13] concerns the target SARS-CoV-2 spike E484K+N501Y+D614G (SARS-CoV-2), P0DTC2. As to the kind of experiment: FACS MFI on transfected HEK293T cells, against D614G spike (mut 3).
Test [14] has as its target T2, SARS-CoV-2 spike …. Described as above.
Test [15] addresses T1, SARS-CoV-2 spike receptor binding …. In words: BLI (Octet), S-RBD amine coupled on AR2G sensor, IgG4 in solution, 1:1 fit.
Test [16] concerns the target N501Y S-RBD (SARS-CoV-2), P0DTC2. As to the kind of experiment: BLI (Octet), N501Y S-RBD amine-coupled on AR2G sensor, 1:1 binding model. For orientation: Biolayer interferometry detects binding as a change in optical thickness at a sensor tip.
For test [17], the target named is T1, SARS-CoV-2 spike receptor binding …. In words: BLI (Octet), S-RBD amine-coupled on AR2G sensor, 1:1 binding model [cont'd) h].
Test [18] deals with N501Y S-RBD (SARS-CoV-2), P0DTC2. In words: BLI (Octet), biotinylated N501Y S-RBD on SA sensor, 1:1 fit.
Test [19] has as its target B.1.351 S-RBD (SARS-CoV-2), P0DTC2. In words: BLI (Octet RED96), biotin B.1.351 S-RBD on SA sensor, 1:1 fit.
Test [20] has as its target T1, SARS-CoV-2 spike receptor binding …. In words: BLI (Octet), biotinylated S-RBD on SA sensor, IgG4 in solution, 1:1 fit.
The target is the same in test [21]. As to the kind of experiment: BLI (Octet RED96), biotin S-RBD on SA sensor, 1:1 fit; dimer S-E6, WT S-RBD.
Test [22] has as its target N501Y S-RBD (SARS-CoV-2), P0DTC2. In words: BLI (Octet), biotinylated N501Y S-RBD on SA biosensor, 1:1 binding model.
Test [23] addresses T1, SARS-CoV-2 spike receptor binding …. In words: BLI (Octet RED96), biotinylated WT S-RBD on SA biosensor, 1:1 binding model.
Test [24] has the same target. In words: BLI (Octet), biotinylated S-RBD on SA biosensor, 1:1 binding model [cont'd) h].
The target of test [25] is B.1.351 S-RBD (SARS-CoV-2), P0DTC2. As to the kind of experiment: BLI (Octet RED96), biotinylated B.1.351 S-RBD on SA biosensor, 1:1 binding model.

The values that follow come from patent publication US20220213176A1.

Like-named read-outs stand apart in the source and are kept apart here.

One may read the IC50 as the concentration at which inhibition is half-maximal. High values mean weaker potency, low ones greater potency. What is called koff is a measure of how fast the partners let go of each other. A lower koff goes with a long-lived complex. Usually kon stands for the second-order rate constant of association. A lower kon goes with slow association. Usually Kd stands for the equilibrium constant for the complex coming apart. A lower Kd goes with tighter binding.

B1: S-D4 (antibody, V domains shown)
VH: QVQLQESGGGVVQPGRSLRLSCEVSGFTFSDYGMHWVRQAPGKGLEWVAVIWSEGSTEYYADSVKGRFTISRDNSKDTLYLQMNSLRAEDTAVYYCARPGYPTSTDRSPAAAGARQYYYYGMDVWGQGTTVTVSS
VL: NFMLTQPHSVSESPGKTVTISCTRSGGSGAANYVQWYQQRPGSSPTTLIYEDSRRPPGVPDRFSGSVDTSSNSASLTISGLQTEDEADYYCQSYDSSNHVVFGGGTKLTVLG
For B1, the IC50 in [1] is 7100 pM. In addition, the MFI came out at 43000 in test [2]; 411000 in test [4]; 414000 in [5]; 138000 in [6]; 147000 in test [7]; 155000 in [8]. Besides, the MFI was determined as 360000 in test [9], 281000 in [10] and 335000 in [11]. For the same molecule, the off-rate constant (koff) in test [3] was found to be 4.2e-05 s⁻¹; in test [16], 4.2e-05 s⁻¹; in test [17], 4.6e-05 s⁻¹. For the same molecule, the figures for the kon in test [3], in test [16] and in test [17] were 440000 M⁻¹ s⁻¹, 440000 M⁻¹ s⁻¹ and 390000 M⁻¹ s⁻¹, respectively. Besides, the Kd in test [12] was 97 pM; in [15], 120 pM. The MFI as percent of mut 3 in test [13] is 33.2 % of mut 3; in test [14], 35.6 % of mut 3.

B2: S-E6 (antibody, V domains shown)
VH: QVTLRESGPGLVKPSETLSLTCAVSGGSLSSVNYYWSWIRQHPGKGLEWIGYIYYSGSTNYNPSLKSRVTMSLDTSKNQFSLKLSSVTAADTAVYYCATPGAIMGALHIWGQGTLVTVSS
VL: QAVLTQPSSASSTPGQRVIISCSGSSSNIGSNTVSWYQQVPGAAPKLLIYFDYRRPSGVPDRFSGTRSGTSASLGISGLQSEDEADYYCAAWDDSLSAWVFGRGTKLTVLG
B2 displayed an IC50 in [1] of 12200 pM. Also, the MFI amounted to 18200 in test [2]; 135000 in [4]; 157000 in test [5]; 139000 in [6]; 141000 in test [7]; 312000 in [8]. For the same molecule, the MFI in test [9] is 133000; in test [10], 153000; in test [11] it was 109000. Besides, the koff turned out to be 0.00025 s⁻¹ in test [3]; 0.00025 s⁻¹ in test [22]; 3.37e-05 s⁻¹ in [23]; 0.00013 s⁻¹ in test [24]; 0.000915 s⁻¹ in test [25]. Besides, the association rate constant (kon) in test [3] stood at 1.2e+06 M⁻¹ s⁻¹; in test [22] it was 1.2e+06 M⁻¹ s⁻¹; in test [23], 403000 M⁻¹ s⁻¹; in test [24] it was 1.2e+06 M⁻¹ s⁻¹; in test [25] it was 581000 M⁻¹ s⁻¹. For the same molecule, the Kd in [18] was found to be 210 pM; in test [19] it was 1580 pM; in test [20], 110 pM; in test [21] it was 83.6 pM; in test [25] it was 1580 pM.
